In the DeepSol protein solubility set:

assay: soluble on expression in E. coli; label from the status in PepcDB or PDB records

| Sequence | soluble on expression in E. coli |
| --- | --- |
| MGSDKIHHHHHHMASSIQGQENVMSQSEFDSALPNGIGLAPYLRMKQEGMTENESRIVEWLLKPGNLSCAPAIKDVAEALAVSEAMIVKVSKLLGFSGFRNLRSALEDYFSQSEQVLPSELAFDEAPQDVVNKVFNITLRTIMEGQSIVNVDEIHRAARFFYQARQRDLYGAGGSNAICADVQHKFLRIGVRCQAYPDAHIMMMSASLLQEGDVVLVVTHSGRTSDVKAAVELAKKNGAKIICITHSYHSPIAKLADYIICSPAPETPLLGRNASARILQLTLLDAFFVSVAQLNIEQANINMQKTGAIVDFFSPGALK | not soluble |
| MGSDKIHHHHHHMASSTSIDFKGNVTGALADRQLRANFRSALDGLRAKRLNVFSDAEELDRMRVQGEANKRRALAQLPALLEQLEHRCTANGIIVHWAETTDEANRIVLDIMRSHDATTLVKGKSMVSEEMHLNAYLERHGIEALETDLGEFIIQLNHEPPSHIIVPAVHKNRQQVARIFHEKLGEPYVDEVEKLNAIARRTLREKFRTAQVGLSGVNFAIAETGTLLLVENEGNGRMCTTVPPVHIALMGLEKVVERLEDVPPLLRLLTGSATGQLVTTYVNCITSPRKPGEKDGPREVHLVILDNGRSRMLADPQLSRTLQCIRCGTCLNHCPVYVRIGGHAYDSVYPGPIGKILTPQIDGLARKGVLATASSLCNACEEVCPVRIPIPALLRRLRRESYAPPGEGVVKGAGSKRTLFEKAVWKGWEMVYSHPALYSFVLKVLGRFGHRLPKVGPLKAWTSVRTAPRFASTSLHELTRQEGIRHE | not soluble |
| MGSDKIHHHHHHMATETRVASLPSIDAAALAAIEGCALVDLLLPDTNGVLRGKRVTREALDKVYRDGVCLPMSLIATDITGNTVEETGLGYAIGDADRICRPIAGSLRPVPWAPQPMAQLLLAMHTPNGALFEVAPRAVLQRVVQGFAALGLTPVIAVELEFYLFDAMADAQGRPQTPRDAHTGERNTSTQVYALQDLDDHRSFTDAVTAACRQQGIPADTAVAEYAPGQFEINLQHRADAVAACDEALLLKRTIKAIAQQQHLLASFMAKPFAGQAGSGLHVHVSLLDAAGHNVLHGTADAPAAALRHAIAGLQRHADASLLLFAPHANSYRRFVPNAFVPLDASWGFNNRTVALRIPHSDAHNTRIEHRIAGADANPYLVAAAVLAAMLDGLQHPGDPTAPVQGNAYAQATFTPRTWQGAVDAFLRSDFIATQLGTQFQHVFGQQKQRELLDYQALVPDLDYARYLRTV | not soluble |
| MGSDKIHHHHHHMATLLTLLLLFATPIAIRAEEFVWPEPSNAIERKFEKAALTSDNAACSKIGGEILRKGGNSIDASIASMFCLGVVNPQSSGIGGGFLMTYFDQKSGDCYSIDARETAPAAASRDMFLNDSDGSKYGFKAAGTPGEIAGYWHIFKKFGSGKVTWKELVQPSVKLAREGHPVSPYLATVMKVKERHFRLFPSVKASSIKLSMFYRHWINPETNDTYQSGDLLKRPKLAKTLERLGNSPNPVQLFYHGEMAKTLAKEFQEGGGLITEQDLANYKVREYVNSNSNDHFRGTLTMCGGPPPSSFGVTQLIVSAMSKLFPEGHKDDIYNDPKVLHKYIEAMKFAYAQRTLLGDHDFVKGALELSKNLTTPEYTQWVIDRMTDKAQSSKNYGGIAQYVPPDHGTSHVSAMDQYGNGVSATTTINRWFGAAVESSEYGILWNDEMDDFSTPGMENGFGFAPSETNFIEPGKRPMSSMSPMVIFDHVTKKVRMVIGGSGGSKIISALAKSIVRSLIFHDSIKKAIDAPMIHNQFTPDITQLDDEFPINMKNILESEYLQKFRNTTGFEGIIQGVNVLNDGIYACGDYRRKTDQEPSGF | not soluble |
| MGSDKIHHHHHHMATQRGTTAPPQTGSEQTGSVAGAGNARASLGVDGAVRLATSSVTTQSYAREFARLFNVDTAHTLTTTSLKTAQLTATHMCSSVHGLGKSTPLPTEDAYILSLQLQHSGGAELWKRGRRVPTEPYAPGSIMLGHLSDEPVANLPDPFECILFHIPRPAFDELCGLSALPPVGELDDVNRTIDPVLHHLGLALVPAMADPQLAGSLFFDHVAHAMYERLATTYGRFRGTLPPRGRVLSKTQERIAKELLVADLLVEPPLSDIALACGLSVRQFVDAFRSTTGMPPFRWLRAYRIERAKELLRRTSFSLAEIGAACGFADQSHFTRTFSAATGTTPGDWRRACGA | not soluble |
| MGSDKIHHHHHHMATQTDSEAALRIASGRKAFVEPLRLGERLKEIRLSNRWTLEDVSQRTGLARSTLSKIENDQISPTFSAVQKLIGGLGIDLPQLLTPPKPQSRTLGRRDLTRVGEGKQHPTPTYEHELLSWQLAQKRMIPFKTIVRARDFNEFSEWVRHDGEEFLMVLDGDIWLYTEFYEPLHLAQGDSIYFDSDMGHALISVSETDAVVLSVCTRGENA | not soluble |
| MGSDKIHHHHHHMATSIETSFPDAPSTTPVLEMQGITKRFHGVSALQNVNLTIYPGEVHALMGENGAGKSTLMKILAGAYIADEGEIRINGQPLKITDPATARKAGINLIYQELNVAPNLTVTENMFMGSELRRGQFLDRKAMQLEAEQVLDSLGANFTAQTIVGTLSIAEQQQVEIARALKDKSRVLVMDEPTAALSDRESDHLFEVIRKLRSDGIAIIYISHRMEEIYALADRISVLRDGQYIGSLTRSEISPQRLVQMMVGRSMQDFYEHQRQMNPGPVVLEVRNMSDARKKIEPASFELHAGEILGLAGLVGAGRTELSRLIFGADRKASGEVFLNGKKLEINTPSDAIAAGIGYVPEDRKDQGLFLEMSARKNIAINTLKQDAKGGIVNWPSVNRLSTEAVENFNIRLANLEIRALDLSGGNQQKLLLARWLAIKPRVLMLDEPTRGVDIGAKSEIYRIMSELAAQGVAILMVSSELSEIVGMSDRVLVMREGQLVGELDGSLGKEITQEKIMHYATGASEVSAL | not soluble |
| MGSDKIHHHHHHMATTVDTGDRRDNGKSVRRKLPRGAHAEIGNVDRDPVELLKISSEGRVRRLVPLRYGRMIESPFAFYRGSAIVQAHDLAGTPNSGLHIQICGDCHLANFGGFATPERALLFDLNDFDETSRGPWEWDLKRLAASFVVAARHLRHKQGVADDLVYQLVRSYQARMQGYGEMGILDTWYDHITFERLLGEETSPNIQRRIRRGMERAADRTSEALLPKLAERVGDKWTILDAPPAVFHVRGAHTLFDADDDWMTAKDIQAAAEKVYKEYLGTLAPDRQRLLSHFTLHDRAFKVVGVGSVGTRCMIQLMIDSHGKPMFLQIKEATRSVVARYFKGPAVSHDGRRVVEGQRLMQAASDLFLGWTKGPFGRDFYVRQLRDMKLSPQIELMDVEALGRYGALCGWVLARAHAKAGGLAAEISGYLGTSDRMAEVMVGYSNSYADQVEKDYERFVAACRSGRLEARTDADMAADFRV | not soluble |
| MGSDKIHHHHHHMAVSELQVQSALKELIDPNTHKDYVTTKSARNIKIDGDAVSVDIALGYPAQSQLATIKQQVEDKLKTLDGVSKATANVSFKIVSHSVQRGVKLIPNVKNIIAVASGKGGVGKSTTAVNLALALAAEGARVGMLDADIYGPSQPTMLGITDKPESTDGKNLDPLIGHGIQAMSIGFLIDVETPMVWRGPMVTQALEQLLNNTNWNELDYLVVDLPPGTGDIQLTLAQRVPVTGAVIVTTPQDIALIDARKGLKMFEKVGIPIIGVVENMSLHICSNCGHEERIFGEGGGERMCRDYNVEFLGALPLDSSIRADTDSGKPSVVSDPDGRVTEIYKQIARRVAVKIGETAVDHSAKFPNIVISNT | not soluble |
| MGSDKIHHHHHHMAWIKTVAFGDATGKLRKLYDRVTGPGGNVDNIMMAHSLRPHTMEGHMALYKNVLHHSGNELPKWVLEMIGVWVSSLNGCAYCVEHHFAGLKRLMRDDARAEAIRAAIEARDIKALPVRACEMAAMDYARKLTQAPTEMMAADLEPLRAEGLSDGHILEINQVVAYFAYANRTVLGLGCSTEGDVLGLSPGNSDDPTDWGHA | not soluble |
| MGSDKIHHHHHHMAYIKRTIETTIENAAKMFSTVLITGARQVGKTTVLKHITEDISYLTLDDPILLLNAFEEAGSFFKSTPPPVIIDEIQYAPNLFPYIKMIADENGKRGQFYLTGSQQFKMMKNVSESLAGRIGIINLLGLSLREIKGDADFNKAFIPTESYLETRRLSAKELNYKEIWKIIYKGSMPAMYADELDWQLFYGSYTKTYLERDVRELTQVGDELKFIKFMTAMASRTSQMLNLTSIANEVGISVPTADRWLSILVSSNIVYLLKPYYNNIMKRAVKTPKLYFLDTGLAAYLTKWNSPDVIEAGAMSGAFFETFVLAEILKGYYNAGILEPALYYYRDKDAKEIDIILEENGTLYPIEIKKTANPSKEHIANFSVLDRLKDMKIGTGCVICMYDKVIHINDNNVSIPVTWL | not soluble |
| MGSDKIHHHHHHMCIMASCLSPNWSVFDIDQSQTLQVAVQEAHARSQPLAIRGGGSKTFYGRQTPACDLLDLGGHRGIIDYAPNELFITLRAGTSLQALEAQLAEAGQMLPFEPPHFGPAATIGGTLACGFSGPRRPYAGSARDMVLGMRILNGQGEILRFGGQVMKNVAGYDVSRLMVGALGTLGVLLEVSLKVLPRPDSTVTLVWPMDPVTAVQRMNDWAGQPLPLSATAYDGEHLYIRLSGTGSAVRAAQTRLGGERLPDAEAAAFWVALREQRNDFFQGDAPLWRLAVAPATPPLPLGDQTLIEWGGGQRWLRGALDATALRQLAAEHGGHATLFRGGNRRGEVFHPLAPPLLAMQQRLKAAFDPRGILNSGRLYATL | not soluble |
| MGSDKIHHHHHHMCRLIGYLGNAIPLDELLYKQEHSLYQQSYSPLELKSGVVCADGVGVGWYDQVGKPFIYRNTIPMWNDPNLEELSNYVQSTCTVGYARLAGIGESLDISNCQPFRSDQLLFVHNGEISNFQQTLYRPIRESLSDATYRLIKGTTDSEHIFALLVQMWQSSPDSTLFWALGATLEKLTELASEYNTSFSANLIVSDGEAIAAIRYAYRTQAPTLYWSYDALKHPNQVIVASEPLSNNQNWTAFDEQSMLFFQAQSLEPRISLLKKFSAIGV | not soluble |
| MGSDKIHHHHHHMCRWLAYTGNPIPLETVLFRAKHSLIDQSLHSRMGATTTNGDGFGIGWYGQPDEVPFIYRCVSPAWNDRNLREAARAIRSPLFVAHVRSATDTPVQETNCHPFRRGRWLFAHNGLIRRYHTLRRDLMMRIDPGLFASIEGSTDSEVMFHLALTFGLEHDPLAALERMAGAIEDAGAHHRVDAPLNMTVCATDGEQVVAVRYSSEHDSRSLFHSTSFRHLHELYPHDPRIRAIGDDAFLVLSEPLVDLHDAWEKIPESTAIIARRGDIRQVPFQPRRST | not soluble |
| MGSDKIHHHHHHMDDLRDSLDRIKSICSEIVVQFESSDVAESLKALQKAVNEAAKSWSGSWLGYHSRVYYNQLQPVPPGARFSQEWGLSDGLSNETRGDWCEYDFDSIYNILKSKAINFSLEQLNELANYANEEIPDLREELISIIFSCLASGEDTYLDRLKQEAELCKTSSVGEFVDYLRGGGQFFSRDRVAVLSGSQTPPHIYLQAQLLAVQSPSTVAKSLKKIANRLALHLTNKSRTYMYSSQPGTHVFIGHGHSPLWRDLKDFISERLKLPWDEFNRLPIAGINNTVRLSQMLDSAAIAFLIMTGEDEQSDLKLRARMNVIHEAGLFQGRLGFRRAILLLEEGCENFSNVDGIGYINFPRGNIKACFEDVRMVLEREGLV | not soluble |
| MGSDKIHHHHHHMDGHRLIQPLHARTADVGGIPVNRVMPQRGRRLIGAWCFLDHAGPATFTVGAGGMRVGSHPHIGLQTFTWMLAGEIMHHDSLGNAQRIRPGELNLMTAGRGIAHTEESILESGQLHAAQLWITLPHATRHTSPRFDHYPDLPRWSEQGTDVTLLRGDFQGREAPTHAFSPLVGLDIVSPDATQLTLPARTDFEYGVLLLEGSLTIERDRFDTNEMAYLGSGLDEITLAMEAGTRALMLGGEPLNEDILIWWNFVGHSKAEIAEAQKEWEEWEAGSDRFGDVPEFDGERIMPPPIPWKVTAN | not soluble |
